Biological target: T1, FLPo (codon-optimized FLPe recombinase) (UniProt P03870)
T1 sequence: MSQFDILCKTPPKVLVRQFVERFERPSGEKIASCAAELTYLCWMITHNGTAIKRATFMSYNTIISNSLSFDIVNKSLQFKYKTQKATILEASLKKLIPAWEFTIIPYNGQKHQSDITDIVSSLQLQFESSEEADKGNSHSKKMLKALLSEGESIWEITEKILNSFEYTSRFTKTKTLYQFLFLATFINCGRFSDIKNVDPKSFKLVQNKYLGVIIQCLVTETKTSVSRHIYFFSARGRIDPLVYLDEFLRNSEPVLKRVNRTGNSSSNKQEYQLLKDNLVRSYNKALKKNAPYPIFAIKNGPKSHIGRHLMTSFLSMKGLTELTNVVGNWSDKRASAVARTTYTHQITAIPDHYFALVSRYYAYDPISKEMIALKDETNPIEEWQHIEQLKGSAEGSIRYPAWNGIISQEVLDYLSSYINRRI
Assay: cell_activity

FRT (FLP recognition site) in ROSA26 PLAP reporter
activity (% of hygroR colonies recombined) (stable integration, 7 of 14 colonies): 50
activity (transient, mouse FLP reporter ES cells, 10 ug circular plasmid, 5 days, value stated as nearly 75%, nearly 20-fold over FLPe): 75%

— US20100050279
